Assay results published in publication PMC7530648 (2020).
No end group written: not given here.

Molecular target: T1, S8-meSRK (S8-SRK ectodomain containing 11 mutations), purified, tags removed (Brassica rapa, three sugar chains (seen in the crystal structure))
T1 chain: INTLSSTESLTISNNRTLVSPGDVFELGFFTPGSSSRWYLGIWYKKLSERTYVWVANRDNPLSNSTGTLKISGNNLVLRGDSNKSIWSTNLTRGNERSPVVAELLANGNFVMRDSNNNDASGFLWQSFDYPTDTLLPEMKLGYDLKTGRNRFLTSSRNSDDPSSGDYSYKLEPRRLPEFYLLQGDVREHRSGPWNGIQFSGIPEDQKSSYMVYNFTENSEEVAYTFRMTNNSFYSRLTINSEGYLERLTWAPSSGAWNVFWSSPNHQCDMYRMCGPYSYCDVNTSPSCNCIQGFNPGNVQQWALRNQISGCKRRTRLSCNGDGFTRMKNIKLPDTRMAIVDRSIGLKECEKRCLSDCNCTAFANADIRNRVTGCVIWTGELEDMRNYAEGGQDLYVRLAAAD
Assay: ITC

Kd: 20.2 nM
B1: biotin-S8-SP11, chemically synthesized (ligand)
chain: NLMKRCTRGFRKLGKCTTLEEEKCKTLYPRGQCTCSDSKMNTHSCDCKSC
modifications: not fully specified; cysteine pairing not given here; also: biotin-S8 (position not given here)
